# “Also recorded” adds a separate entry of the source.
# T1: DR6 receptor (Homo sapiens, UniProt O75509)
# T1 construct: expressed in transfected cells; host or cells: COS-1
# T1 sequence (O75509 42-655): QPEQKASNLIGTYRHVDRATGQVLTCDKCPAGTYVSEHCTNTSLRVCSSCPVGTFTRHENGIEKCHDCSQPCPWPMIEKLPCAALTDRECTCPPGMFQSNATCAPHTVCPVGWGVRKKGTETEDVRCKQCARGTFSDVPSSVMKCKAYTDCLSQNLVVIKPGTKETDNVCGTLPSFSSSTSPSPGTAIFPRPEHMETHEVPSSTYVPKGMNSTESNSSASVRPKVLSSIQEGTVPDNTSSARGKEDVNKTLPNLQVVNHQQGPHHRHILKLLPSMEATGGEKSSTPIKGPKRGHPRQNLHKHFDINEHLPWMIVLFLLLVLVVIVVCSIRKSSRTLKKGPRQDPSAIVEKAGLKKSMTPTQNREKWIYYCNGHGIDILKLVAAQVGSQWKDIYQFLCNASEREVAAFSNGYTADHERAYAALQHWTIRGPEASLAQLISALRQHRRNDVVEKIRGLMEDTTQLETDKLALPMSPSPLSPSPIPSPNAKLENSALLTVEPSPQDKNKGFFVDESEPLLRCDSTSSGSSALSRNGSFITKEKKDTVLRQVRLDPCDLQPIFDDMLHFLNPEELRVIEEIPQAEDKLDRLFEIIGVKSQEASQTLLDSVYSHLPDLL
# T2: p75NTR (Homo sapiens, UniProt P08138)
# T2 construct: expressed in transfected cells; host or cells: COS-1
# T2 sequence (P08138 29-427): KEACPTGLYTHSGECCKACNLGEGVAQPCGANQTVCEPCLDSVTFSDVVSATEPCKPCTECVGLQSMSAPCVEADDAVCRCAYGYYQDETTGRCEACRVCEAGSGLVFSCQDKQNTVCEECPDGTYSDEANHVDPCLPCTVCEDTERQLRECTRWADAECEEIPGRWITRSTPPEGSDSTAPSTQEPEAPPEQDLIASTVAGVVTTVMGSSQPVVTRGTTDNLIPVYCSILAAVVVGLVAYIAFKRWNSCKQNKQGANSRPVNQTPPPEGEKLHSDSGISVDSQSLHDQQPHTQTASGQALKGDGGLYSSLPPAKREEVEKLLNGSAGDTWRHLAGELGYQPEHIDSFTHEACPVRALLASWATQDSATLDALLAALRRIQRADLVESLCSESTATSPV
# B1: DR6-AP: mouse DR6 ectodomain fused to human placental alkaline phosphatase (protein)
# chain: QPEQKTLSLPGTYRHVDRTTGQVLTCDKCPAGTYVSEHCTNMSLRVCSSCPAGTFTRHENGIERCHDCSQPCPWPMIERLPCAALTDRECICPPGMYQSNGTCAPHTVCPVGWGVRKKGTENEDVRCKQCARGTFSDVPSSVMKCKAHTDCLGQNLEVVKPGTKETDNVCGMRLFFSSTNPPSSGTVTFSHPEHMESHDVPSSTYEPQGMNSTDSNSTASVRTKVPSGIEEGTVPDNTSSTSGKEGTNRTLPNPPQVTHQQAPHHRHILKLLPSSMEATGEKSSTAIKAPKRGHPRQNAHKHFDINEHIIPVEEENPDFWNREAAEALGAAKKLQPAQTAAKNLIIFLGDGMGVSTVTAARILKGQKKDKLGPEIPLAMDRFPYVALSKTYNVDKHVPDSGATATAYLCGVKGNFQTIGLSAAARFNQCNTTRGNEVISVMNRAKKAGKSVGVVTTTRVQHASPAGTYAHTVNRNWYSDADVPASARQEGCQDIATQLISNMDIDVILGGGRKYMFRMGTPDPEYPDDYSQGGTRLDGKNLVQEWLAKRQGARYVWNRTELMQASLDPSVTHLMGLFEPGDMKYEIHRDSTLDPSLMEMTEAALRLLSRNPRGFFLFVEGGRIDHGHHESRAYRALTETIMFDDAIERAGQLTSEEDTLSLVTADHSHVFSFGGYPLRGSSIFGLAPGKARDRKAYTVLLYGNGPGYVLKDGARPDVTESESGSPEYRQQSAVPLDEETHAGEDVAVFARGPQAHLVHGVQEQTFIAHVMAFAACLEPYTACDLAPPAGTTDAAHPG
# Legend:
# DR6 receptor = molecular target: T1, DR6 receptor; test: cell-based AP binding assay, DR6 receptor expressing COS-1 cells; details: same conditions as APP binding
# Procedure: (§1) For the APP AP binding assay, COS-1 cells cultured in DMEM/10% FBS (Gibco) medium in 6-well culture dishes were transfected with 2 microgram of APP expressing vector per well using FuGene transfection reagent (Roche) according to the manufacturer protocol. Two days post-transfection, cells were washed twice with the binding buffer (HBSS, Gibco Cat. No. 14175-095, with 0.2% BSA, 0.1% NaN3, 5 mM CaCl2, 1 mM MgCl2, 20 mM HEPES, pH=7.0). An AP binding assay was then carried out by making a 1:1 mixture of DR6-AP conditioned medium and the binding buffer, which was applied directly to APP over-expressing COS-1 cells and incubated for 90 minutes at room temperature. Following the incubation, the unbound DR6-AP proteins were washed away by rinsing COS-1 cells five times with the binding buffer. Cells were then fixed with 3.7% formaldehyde diluted in PBS, for 12 minutes at room temperature. The remaining formaldehyde was removed by rinsing cells 3 times with HBS buffer (20 mM HEPES pH=7.0, 150 mM NaCl). Endogenous AP activity was blocked by heat inactivation at 65° C. in HBS buffer for 30 minutes. COS-1 cells were then rinsed three times in the AP reaction buffer (100 mM TRIS pH=9.5, 100 mM NaCl, 50 mM MgCl2). […]
# p75NTR = molecular target: T2, p75NTR; test: cell-based AP binding assay, p75NTR expressing COS-1 cells; details: same conditions as APP binding
# Procedure: as §1
# APP = molecular target: T3, APP (Homo sapiens, UniProt P05067); test: cell-based AP binding assay, APP expressing COS-1 cells; details: DR6-AP conditioned medium 1:1 with binding buffer, 90 minutes
# T3 construct: expressed in transfected cells; host or cells: COS-1
# T3 sequence (P05067 18-770): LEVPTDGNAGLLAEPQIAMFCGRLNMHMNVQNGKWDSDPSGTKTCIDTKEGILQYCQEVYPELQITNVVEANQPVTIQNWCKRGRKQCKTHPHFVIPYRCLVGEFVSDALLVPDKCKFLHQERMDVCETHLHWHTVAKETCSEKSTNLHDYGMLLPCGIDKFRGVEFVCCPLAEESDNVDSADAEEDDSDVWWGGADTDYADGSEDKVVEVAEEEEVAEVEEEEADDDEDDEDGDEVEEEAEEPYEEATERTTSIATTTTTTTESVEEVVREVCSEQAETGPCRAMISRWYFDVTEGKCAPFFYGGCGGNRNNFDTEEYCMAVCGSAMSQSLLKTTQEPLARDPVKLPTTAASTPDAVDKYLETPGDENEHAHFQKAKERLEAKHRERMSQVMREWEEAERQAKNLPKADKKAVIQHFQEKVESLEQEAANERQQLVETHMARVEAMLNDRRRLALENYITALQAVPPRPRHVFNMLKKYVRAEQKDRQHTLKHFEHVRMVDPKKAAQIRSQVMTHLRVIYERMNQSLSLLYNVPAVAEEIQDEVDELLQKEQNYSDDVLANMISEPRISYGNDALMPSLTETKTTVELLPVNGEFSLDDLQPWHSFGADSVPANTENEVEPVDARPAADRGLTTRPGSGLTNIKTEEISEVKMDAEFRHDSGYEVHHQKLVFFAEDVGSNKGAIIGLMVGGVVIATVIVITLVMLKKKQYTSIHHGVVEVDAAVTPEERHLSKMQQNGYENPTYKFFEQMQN
# Procedure: The materials and methods used to generate the data shown in this figure are as follows. To test whether APP directly interacts with DR6 extracellular domain, a cell-based AP binding assay was carried out (FIG. 14B). To generate DR6 ectodomain-AP fusion protein (DR6-AP), COS-1 cells cultured in DMEM/10% FBS (Gibco) medium were transfected with 15 microgram of DR6-AP fusion expression construct using FuGene transfection reagent (Roche) according to the manufacturer protocol. Twelve hours post-transfection, COS-1 cell medium was changed to OPTI-MEM (Invitrogen). Forty-eight hours post-transfection, COS-1 cell conditioned medium containing DR6-AP proteins was collected and filtered.
# The amount of DR6-AP proteins in the medium was quantified according to the following procedure. 100 microliters of 2×AP buffer (prepared by adding 100 mg Para-nitrophenyl phosphate (Sigma) and 15 microliter of 1M MgCl2 to 15 ml 2M diethanolamine pH 9.8) was mixed with equal volume of transfected COS cell conditioned medium or control conditioned medium from untransfected COS-1 cells. […] The volume of reaction was then adjusted by adding 800 microliters of distilled water and the O.D. was measured at 405 nm absorbance wavelength. The concentration in nM was calculated according to the formula (for 100 microliter): C (nM)=O.D.×100×(60/developing time)/30. […]
molecule,measurement,setting,value
B1,binding of DR6 ectodomain to DR6 receptor expressing cells,DR6 receptor,does NOT bind; also recorded: no specific binding
same,binding of DR6 ectodomain to p75NTR expressing cells,p75NTR,does NOT bind; also recorded: no specific binding
same,binding of DR6 ectodomain to APP expressing cells,APP,binds APP expressed by cultured cells

# — patent US20100203044A1, “DR6 ANTAGONISTS AND USES THEREOF IN TREATING NEUROLOGICAL DISORDERS” (priority 2006, published 2010)
